The data set concerns the molecule itself. The experiment in a line: SEC-MALS; analytical Superdex200 5/150, room temperature, GF buffer (150 mM NaCl, 20 mM HEPES, pH 7.5); oligomeric state of the disulfide-linked assembly. For orientation: In gel filtration, larger molecules generally elute earlier.

B1: full-length Olfm1 (mouse olfactomedin-1, isoform 1, residues 17-478) (natural protein, UniProt O88998 17-478, looked up)
chain: MITNWMSQTLPSLVGLNTTRLSAASGGTLDRSTGVLPTNPEESWQVYSSAQDSEGRCICTVVAPQQTMCSRDARTKQLRQLLEKVQNMSQSIEVLDRRTQRDLQYVEKMENQMKGLETKFKQVEESHKQHLARQFKAIKAKMDELRPLIPVLEEYKADAKLVLQFKEEVQNLTSVLNELQEEIGAYDYDELQSRVSNLEERLRACMQKLACGKLTGISDPVTVKTSGSRFGSWMTDPLAPEGDNRVWYMDGYHNNRFVREYKSMVDFMNTDNFTSHRLPHPWSGTGQVVYNGSIYFNKFQSHIIIRFDLKTEAILKTRSLDYAGYNNMYHYAWGGHSDIDLMVDENGLWAVYATNQNAGNIVISKLDPVSLQILQTWNTSYPKRSAGEAFIICGTLYVTNGYSGGTKVHYAYQTNASTYEYIDIPFQNKYSHISMLDYNPKDRALYAWNNGHQTLYNVTLFH
modifications: N-linked glycans (eight predicted); interprotein disulfides
notes: the C-terminal VIRSDEL segment is not included; the native signal peptide is replaced by an N-terminal cystatin secretion signal of the vector pUPE107.03; also called noelin; pancortin; source: N-acetylglucosaminyltransferase I-deficient, EBNA1-expressing HEK293 cells, transient expression, secreted; purified (nickel-nitrilotriacetic acid, Superdex200 gel filtration); also unpurified in …
Usually stoichiometry N stands for the number of molecules, sites or subunits per partner or assembly. With B1, the “stoichiometry N” value amounted to 4.

(Values after article PMC4463452, “Olfactomedin-1 Has a V-shaped Disulfide-linked Tetrameric Structure*^([image sbox.jpg])” (The Journal of Biological Chemistry, 2015).)
